Source: patent publication US20050084489A1, “Methods of preventing or treating disorders by administering and integrin alphanubeta3 antagonist in combination with an HMG-CoA reductase inhibitor or a bisphosphonate” (priority 2002, published 2005)

Key:
mouse integrin αVβ3 = biological target: T1, mouse integrin αVβ3 (Mus musculus, UniProt O54890); experiment: Antibody binding to wild type mouse integrin αVβ3
T1 sequence (O54890 26-787): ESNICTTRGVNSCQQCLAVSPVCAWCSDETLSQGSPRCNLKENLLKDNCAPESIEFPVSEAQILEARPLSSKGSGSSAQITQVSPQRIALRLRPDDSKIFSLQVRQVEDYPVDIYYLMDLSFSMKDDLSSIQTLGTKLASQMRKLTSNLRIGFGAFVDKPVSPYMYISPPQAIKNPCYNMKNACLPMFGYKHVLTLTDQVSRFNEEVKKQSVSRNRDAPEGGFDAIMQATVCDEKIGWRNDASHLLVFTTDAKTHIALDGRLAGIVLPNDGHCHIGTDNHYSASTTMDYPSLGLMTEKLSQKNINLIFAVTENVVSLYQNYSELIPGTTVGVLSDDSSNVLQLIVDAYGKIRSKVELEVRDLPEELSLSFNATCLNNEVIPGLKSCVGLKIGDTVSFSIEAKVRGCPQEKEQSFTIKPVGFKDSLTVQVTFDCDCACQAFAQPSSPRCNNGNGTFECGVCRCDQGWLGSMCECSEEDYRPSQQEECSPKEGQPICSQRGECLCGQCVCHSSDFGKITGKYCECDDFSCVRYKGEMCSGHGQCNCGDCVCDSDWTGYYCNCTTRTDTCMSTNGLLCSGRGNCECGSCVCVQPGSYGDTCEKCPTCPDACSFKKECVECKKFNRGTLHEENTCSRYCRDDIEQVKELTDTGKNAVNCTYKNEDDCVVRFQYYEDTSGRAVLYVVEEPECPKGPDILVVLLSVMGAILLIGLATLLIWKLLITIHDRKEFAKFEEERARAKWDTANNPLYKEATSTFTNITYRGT
T1 sequence (P43406 31-885 partner limits assumed): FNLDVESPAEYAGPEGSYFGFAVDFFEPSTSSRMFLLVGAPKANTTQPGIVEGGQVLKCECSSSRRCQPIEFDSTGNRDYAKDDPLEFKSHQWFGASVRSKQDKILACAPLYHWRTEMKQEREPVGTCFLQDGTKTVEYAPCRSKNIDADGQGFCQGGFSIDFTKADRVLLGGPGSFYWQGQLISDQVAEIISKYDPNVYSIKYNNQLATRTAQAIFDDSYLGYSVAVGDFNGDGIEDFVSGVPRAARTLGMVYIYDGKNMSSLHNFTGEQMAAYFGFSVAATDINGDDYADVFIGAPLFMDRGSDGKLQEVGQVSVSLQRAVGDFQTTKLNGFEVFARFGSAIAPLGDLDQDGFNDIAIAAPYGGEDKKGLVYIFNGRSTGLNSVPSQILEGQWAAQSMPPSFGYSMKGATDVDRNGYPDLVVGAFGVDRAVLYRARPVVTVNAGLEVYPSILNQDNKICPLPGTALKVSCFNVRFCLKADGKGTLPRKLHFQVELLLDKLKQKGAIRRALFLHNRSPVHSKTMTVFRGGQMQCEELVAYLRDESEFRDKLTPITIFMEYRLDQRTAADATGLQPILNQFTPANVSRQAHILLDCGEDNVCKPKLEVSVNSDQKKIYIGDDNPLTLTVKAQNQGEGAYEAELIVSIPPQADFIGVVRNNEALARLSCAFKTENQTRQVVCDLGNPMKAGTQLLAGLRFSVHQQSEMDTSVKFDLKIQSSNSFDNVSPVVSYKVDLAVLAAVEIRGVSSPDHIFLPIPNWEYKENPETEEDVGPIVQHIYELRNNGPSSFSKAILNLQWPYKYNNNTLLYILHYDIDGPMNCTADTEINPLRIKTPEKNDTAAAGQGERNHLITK
T1 sequence (P43406 887-1044 partner limits assumed): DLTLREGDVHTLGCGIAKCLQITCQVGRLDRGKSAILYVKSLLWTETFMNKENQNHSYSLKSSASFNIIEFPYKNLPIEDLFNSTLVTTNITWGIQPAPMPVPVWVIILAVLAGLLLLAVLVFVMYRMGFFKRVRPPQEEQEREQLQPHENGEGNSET
Excerpt: (§1) The invention encompasses methods for identifying antagonists that are immunospecific for integrin αVβ3, particularly for antibodies that specifically bind to the same epitope as VITAXIN® and/or LM609. […] In certain embodiments, amino acid substitutions are made in the subunits of integrin αVβ3, for example to change the ligand specificity of the integrin αVβ3 and/or disrupt the heterodimerization of the subunit chains. Preferably the integrin αVβ3 is human. In specific embodiments, such amino acid substitutions disrupt the specific interaction of certain antagonists of integrin αVβ3 with a particular integrin αVβ3 epitope. In a preferred embodiment, the amino acid substitutions are made within regions of an integrin subunit that confers ligand binding specificity, preferably ligand binding specificity of LM609 and/or VITAXIN®, particularly residues 164-202 of human β3. Alternatively, mouse β chain residues corresponding to residues 164-202 of the human β3 chain are replaced with the residues 164-202 of the human β3 chain. Such mouse-human chimeras can be used to screen for antagonists that bind to the region 164-202 of human β3 but not to mouse integrin αVβ3.
(§2) In addition, the invention provides methods for identifying monoclonal antibodies that bind to the heterodimerized αVβ3 but not the αV or the β3 chains when not included in a heterodimer. […]

[1] = tested on: integrin αVβ3 with mutated human β3 chain; experiment: Antibody binding to integrin αVβ3 heterodimer with human β3 residues substituted with rat residues
Excerpt: as §1
In preferred embodiments, the amino acid substitutions are made in the β3 subunit. In certain embodiments, human β3 residues are substituted with rat residues as described in Table 2. […] Such substitutions preferred examples but not limiting. Such substituted subunits are merely exemplary and not limiting. Any integrin αVβ3 regions identified to be responsible for antibody binding can be altered with substituted, deleted or inserted residues to characterize binding specificity of various antibodies and to screen for antibodies with the same a similar binding specificity.
In addition, the invention provides methods for identifying monoclonal antibodies that bind to the heterodimerized αVβ3 but not the αV or the β3 chains when not included in a heterodimer. […] The antibodies identified from such screening methods can be useful for the prevention, management and treatment of integrin αVβ3-mediated diseases and disorders, including but not limited to inflammatory diseases, autoimmune disorders, disorders associated with aberrant expression and/or activity of integrin αvβ3, disorders associated with abnormal bone metabolism, disorders associated with aberrant angiogenesis and cancers, or a condition or symptom associated therewith. It is also contemplated that such antibodies can be used in the methods and compositions contemplated by the present invention. […]

[2] = biological target: T2, modified mouse integrin αVβ3 (mouse-human chimera, human β chain residues 164-202) (Mus musculus, UniProt O54890, A208T/I198L/K199E/N204D/N207T/Q196E/S226T); experiment: Antibody binding to modified mouse integrin αVβ3 carrying amino acids 164-202 of the human β chain; details: mouse β chain region replaced with amino acids 164-202 of the human β chain
T2 sequence (O54890 26-787 Q196E/I198L/K199E/N204D/N207T/A208T/S226T): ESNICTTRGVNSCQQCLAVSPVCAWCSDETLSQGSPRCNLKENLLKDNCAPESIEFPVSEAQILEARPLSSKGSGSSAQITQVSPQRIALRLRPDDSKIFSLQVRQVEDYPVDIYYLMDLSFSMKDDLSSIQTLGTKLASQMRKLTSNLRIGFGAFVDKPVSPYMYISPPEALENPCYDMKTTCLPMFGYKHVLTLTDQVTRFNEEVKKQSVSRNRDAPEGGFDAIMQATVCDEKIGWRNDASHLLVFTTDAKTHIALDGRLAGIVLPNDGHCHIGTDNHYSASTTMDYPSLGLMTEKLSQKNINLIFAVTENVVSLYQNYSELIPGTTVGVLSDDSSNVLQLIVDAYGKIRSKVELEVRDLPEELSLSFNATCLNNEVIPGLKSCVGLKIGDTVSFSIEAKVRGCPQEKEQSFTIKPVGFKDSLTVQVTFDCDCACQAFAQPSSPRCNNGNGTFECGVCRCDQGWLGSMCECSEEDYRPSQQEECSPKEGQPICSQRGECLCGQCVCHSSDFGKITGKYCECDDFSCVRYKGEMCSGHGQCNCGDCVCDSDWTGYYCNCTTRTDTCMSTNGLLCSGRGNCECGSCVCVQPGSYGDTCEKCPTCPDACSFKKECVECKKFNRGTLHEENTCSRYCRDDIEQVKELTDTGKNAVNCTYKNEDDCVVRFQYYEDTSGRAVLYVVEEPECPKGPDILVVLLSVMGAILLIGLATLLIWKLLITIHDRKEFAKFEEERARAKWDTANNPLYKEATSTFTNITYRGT
T2 sequence (P43406 31-885 partner): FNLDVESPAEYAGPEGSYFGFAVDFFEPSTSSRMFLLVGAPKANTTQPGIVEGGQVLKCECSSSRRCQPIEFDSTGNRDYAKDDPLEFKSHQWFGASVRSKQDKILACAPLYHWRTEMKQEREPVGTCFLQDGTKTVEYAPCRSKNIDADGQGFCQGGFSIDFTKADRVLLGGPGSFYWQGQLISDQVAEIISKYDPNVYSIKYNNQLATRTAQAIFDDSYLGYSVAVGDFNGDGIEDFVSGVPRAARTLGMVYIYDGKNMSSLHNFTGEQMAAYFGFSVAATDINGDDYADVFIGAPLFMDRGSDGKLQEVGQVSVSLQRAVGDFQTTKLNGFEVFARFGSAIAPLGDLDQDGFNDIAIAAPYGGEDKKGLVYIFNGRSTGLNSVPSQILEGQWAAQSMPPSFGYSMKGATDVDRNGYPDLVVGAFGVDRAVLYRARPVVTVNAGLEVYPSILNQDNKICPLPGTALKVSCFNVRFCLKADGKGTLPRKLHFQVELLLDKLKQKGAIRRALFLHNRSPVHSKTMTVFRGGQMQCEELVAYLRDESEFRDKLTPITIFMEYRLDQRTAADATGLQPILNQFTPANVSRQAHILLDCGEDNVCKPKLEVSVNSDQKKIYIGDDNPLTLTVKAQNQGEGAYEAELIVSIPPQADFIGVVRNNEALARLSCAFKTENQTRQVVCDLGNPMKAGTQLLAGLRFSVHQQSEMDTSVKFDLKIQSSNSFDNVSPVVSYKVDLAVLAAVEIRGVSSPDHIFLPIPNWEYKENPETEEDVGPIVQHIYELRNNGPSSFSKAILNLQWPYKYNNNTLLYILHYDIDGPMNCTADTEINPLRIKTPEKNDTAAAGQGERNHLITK
T2 sequence (P43406 887-1044 partner): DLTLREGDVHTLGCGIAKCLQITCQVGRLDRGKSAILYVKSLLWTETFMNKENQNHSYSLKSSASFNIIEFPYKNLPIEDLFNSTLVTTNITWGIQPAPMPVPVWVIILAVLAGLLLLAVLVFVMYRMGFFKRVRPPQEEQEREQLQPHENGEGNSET
Excerpt: as §1, §2

B1: VITAXIN®: humanized monoclonal antibody MEDI-522 (MedImmune) that immunospecifically binds to integrin αVβ3; human IgG1 subclass (antibody, chains of the INN, looked up, V domains shown)
VH: QVQLVESGGGVVQPGRSLRLSCAASGFTFSSYDMSWVRQAPGKGLEWVAKVSSGGGSTYYLDTVQGRFTISRDNSKNTLYLQMNSLRAEDTAVYYCARHLHGSFASWGQGTTVTVSS
VL: EIVLTQSPATLSLSPGERATLSCQASQSISNFLHWYQQRPGQAPRLLIRYRSQSISGIPARFSGSGSGTDFTLTISSLEPEDFAVYYCQQSGSWPLTFGGGTKVEIK
With B1 the “binding to mouse integrin αVβ3” value (mouse integrin αVβ3) was “do not bind”, the “effect of β3 mutation on antibody binding to integrin αVβ3” value (“effect of β3 mutation … to integrin αVβ3” below) ([1]; Mutation A: Glu to Gln at position 171 (E171Q)) was “disrupts binding” and the “effect of β3 mutation … to integrin αVβ3” value ([1]; Mutation B: Leu and Glu to Ile and Lys at positions 173 and 174 (L173I, E174K)) was “disrupt binding”. The “effect of β3 mutation … to integrin αVβ3” value ([1]; Mutations A and C combined (three substituted residues)) was “disrupts binding”, the “effect of β3 mutation on antibody binding to the integrin αVβ3 heterodimer” value ([1]; mutation of residues 171, 173 and/or 174 of the human β3 chain) was “disrupt binding” and the “binding to modified mouse integrin αVβ3” value [2] was “do bind”.
